T1: PRPF39 full-length (human, UniProt Q86UA1 1-669)
T1 sequence: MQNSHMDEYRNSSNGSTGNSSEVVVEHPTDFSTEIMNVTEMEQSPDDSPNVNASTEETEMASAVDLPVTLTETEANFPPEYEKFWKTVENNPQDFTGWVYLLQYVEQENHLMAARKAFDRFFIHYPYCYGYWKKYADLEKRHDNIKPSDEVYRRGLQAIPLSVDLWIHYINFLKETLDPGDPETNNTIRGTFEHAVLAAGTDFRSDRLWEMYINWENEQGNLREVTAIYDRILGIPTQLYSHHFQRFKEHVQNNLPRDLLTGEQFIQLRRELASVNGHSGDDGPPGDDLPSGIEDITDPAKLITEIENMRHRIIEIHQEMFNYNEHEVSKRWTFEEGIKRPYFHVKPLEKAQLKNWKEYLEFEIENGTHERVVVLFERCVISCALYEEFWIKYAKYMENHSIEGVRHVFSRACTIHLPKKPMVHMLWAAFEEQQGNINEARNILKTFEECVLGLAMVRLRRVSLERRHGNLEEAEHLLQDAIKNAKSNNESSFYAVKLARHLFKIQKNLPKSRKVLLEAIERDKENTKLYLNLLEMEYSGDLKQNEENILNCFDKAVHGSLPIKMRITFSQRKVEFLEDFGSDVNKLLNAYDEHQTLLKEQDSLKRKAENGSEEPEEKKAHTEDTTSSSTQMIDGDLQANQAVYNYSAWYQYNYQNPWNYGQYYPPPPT

T2: PRPF39 NTD (human, UniProt Q86UA1 1-296)
T2 sequence: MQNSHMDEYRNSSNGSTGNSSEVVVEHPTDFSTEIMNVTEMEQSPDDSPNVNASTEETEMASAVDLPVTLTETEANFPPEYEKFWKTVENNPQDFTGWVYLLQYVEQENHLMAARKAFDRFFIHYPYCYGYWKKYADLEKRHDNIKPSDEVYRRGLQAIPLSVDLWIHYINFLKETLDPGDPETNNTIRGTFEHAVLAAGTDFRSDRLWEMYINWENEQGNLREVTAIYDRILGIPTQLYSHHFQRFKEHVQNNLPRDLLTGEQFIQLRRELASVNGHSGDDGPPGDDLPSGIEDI

T3: PRPF39 CTD (human, UniProt Q86UA1 297-669)
T3 sequence: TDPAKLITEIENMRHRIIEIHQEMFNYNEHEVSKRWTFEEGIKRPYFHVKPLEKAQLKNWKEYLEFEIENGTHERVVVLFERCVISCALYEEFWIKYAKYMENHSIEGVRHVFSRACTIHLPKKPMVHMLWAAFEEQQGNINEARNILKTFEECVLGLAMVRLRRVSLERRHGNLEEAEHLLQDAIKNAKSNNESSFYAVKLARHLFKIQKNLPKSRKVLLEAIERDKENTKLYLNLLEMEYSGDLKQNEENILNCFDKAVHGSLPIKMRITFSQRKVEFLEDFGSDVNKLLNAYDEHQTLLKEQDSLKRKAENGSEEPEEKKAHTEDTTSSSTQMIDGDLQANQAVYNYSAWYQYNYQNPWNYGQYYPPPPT


Columns and labels:
Assay in all cases: EMSA
[1] = biological target: T1, PRPF39 full-length
[2] = biological target: T2, PRPF39 NTD
[3] = biological target: T3, PRPF39 CTD

Binder	Kd [1]	binding result [2]	binding result [3]
GGCCCCCCGG (ssRNA) [GC-rich RNA oligo]	516 ± 256 nM	–	–
AAAAAAAAAA (ssRNA) [10 nt poly(A) RNA oligo]	–	no binding	no binding
